This data set is described as follows: yeast display, Sf9 membrane polyspecificity reagent, FACS + sequencing; frameworks hold sequencing errors. In short, it runs like this:
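Nanobodies came from a synthetic yeast display library in Saccharomyces cerevisiae BJ5465, induced with galactose for 36–48 hours and stained for 1 hour at 4 °C with 10% biotinylated, detergent-solubilized Sf9 membrane reagent. Cells were enriched on streptavidin microbeads and then FACS-sorted, with low and high (top ~1%) gates set on anti-HA fluorescence for expression and streptavidin fluorescence for reagent binding. Each polyreactivity label reflects the gate a clone came from. Genes were amplified by colony PCR, sequenced by MiSeq 2 × 250 and filtered by CDR length.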
Take “QVQLVESVGGLVQAGGSLRLSCAASGRTIHFNTMGWYRQAPGKERELVAAIRWGGNTYYADSVKGRFTISRDNAKNTVYLQMNSLKPEDTAVYYCAADRWYYFLMYYWGQGTQVTVSS”: the “polyreactivity (PSR sort gate)” value is given as “low polyreactivity”. With “QVQLVESGGGLVQAGGSLRLSCAATGRTLGGNAMGWYRLAPGKEREFVARISTRGVRTYYAYSVKGRFTISRDNAKNTVDLQLNSLNPEDTAVYYCAKQVSYGHIGSYPDRDSWGQGTQVTVSS”, the “polyreactivity (PSR sort gate)” value is recorded as “low polyreactivity”.

For “QVQLVESGGGLVQAGGSLRLSCAASGLTYSNAMGWYRQAPGKERELVAAISWRGGRTYYADSVKGRFTISRDNAKNTVYLQMNSLKPEDTAVYYCAKYAHGHKWYGYWGQGTQVTVSS”, the “polyreactivity (PSR sort gate)” value is reported as “low polyreactivity”. The entry for “QVQLVESGGGLVQAGGSLRLTCAASGRIFTRYMGWYRQAPGKERELVATINWSGGSTYYADSVKGRFTISRDNEKNTFYLQMNSLKPEDTAVYYCNARNVHFYYVQYNGAKIFDYWGQGTQVTVSS” is “low polyreactivity”.

With “QVQLVESGGGLVQPGGSLRLIFAASGSIFHYNAIGWYTQAPGKEREFVAVISKSSGSTFYADSVKGRFTISRDNAKNTVYLQMNSLKPEDTAVYYCNLVTKRYPIIGNYWGQGSQVTVSS”, the “polyreactivity (PSR sort gate)” value is “high polyreactivity”. As to “QVQLGESGGGLVQAGGSLRLSCAASGRIFSKNAMGWYRQAPGKERELVASIRQSGSNTYADSVKGRFTISRVNAKNTVYVQMNSLKPEDTAVYNCAASYFPLNSGRKVGYWGQGTQVTVSS”, the “polyreactivity (PSR sort gate)” value is “low polyreactivity”. Turning to “QVQLVESGGGLVQAGGSLRLSCAASGSIFNRYTMGWYRQAPGKEREFVAAIRNSGSRTYYADSVKRRFTISRDNAKNTVYLQMNSLKPEDTAVYYCAADGPLNSSESYYWGQGTQVTVSS”, the “polyreactivity (PSR sort gate)” value is “low polyreactivity”.

For “QVQLVESGGGLVQAGGSLRLSCAASGGIFPSYAMGWYRQAPGKERELVAAITRGASTYADSVKGRFTISRDNAKNTVYLQMNSLKPEDTAVYYCAADTKRRSIRYDYWGQGTQVTVSS”, the “polyreactivity (PSR sort gate)” value is “high polyreactivity”.

Take “QVQLVESGGGLVQAGGSLRLSCAASGFTKAYAMGWSRQAPGKERELVAVISDRAGSTYYADSVKGRFTISRDNPKNTVYLQMNSLKPEDTAVYYCAADGIGYSYHGRPYIYEYWGQGTQVTVSS”: the “polyreactivity (PSR sort gate)” value is “low polyreactivity”. For “QVQLVESGGGLVQAGGSLRLSCAASGSIYSYNVMGWYRQAPGKERELVAAITRSGGSTYYADSVKGRFTISRDNAKNTVYLQMNSLKPEDTAVYYCATAYYSTPFREYSYWGQGTQVTVSS”, the “polyreactivity (PSR sort gate)” value is “low polyreactivity”.

For “QVQLVESGGRLVQAGGSLRLSCAAYGSTFQGYAMGWYRQAPGKERELVADISWSGGSTYYADSVKGRFTISRDNAKNTVYLQMNSLKPEDTAVYYCNAVGYLDFEWGQGTQVTVSS”, the “polyreactivity (PSR sort gate)” value is on record as “low polyreactivity”. For “QVQLVESGGGLVQAGGSLRLSCAASGIIFYSYVMGWYRQAPGKERELVAVISRSGGRTYYADSVKGRFTISRDNAKNTVYLQMISLKPEDTAVYYWAAALGVALNDYWGQGTQVTVSS”, the “polyreactivity (PSR sort gate)” value is given as “high polyreactivity”. Consider “QVQLVETGGGLVQAGGSLRLSCAASGFTFTGNTMGWSRQAPGKERELVAAISQSGSRTYYADSVKGRFTISRDNAKNTVYLQMNSLKPEDTAVYYCNADYSSYWTSYDYWGQGTQVTVSS”, for which the “polyreactivity (PSR sort gate)” value is listed as “high polyreactivity”. Consider “QVQLVESGGGLVQAGGSLRLSCAASGIIFVVYAMGWYRQAPGKERELVAAISFRGGSTYYADSVKGRFTISRDNAKNTVYLQMNSLKPEDTAVYYCAARAFRHDGYDYWGQGTQVTVSS”, for which the “polyreactivity (PSR sort gate)” value is “low polyreactivity”. In the case of “QVQLVESGGGLVQAGGSLRLSCAASGSTFSANTMGWYRQAPGKERELVAAISSSGVGTRYADSVKGRFTISRDNAKNTVYLQMNSLKPEDTSVFYCAADYRPTVITRNDYWGQGTQVTVSS”, the “polyreactivity (PSR sort gate)” value is recorded as “low polyreactivity”. The entry for “QVQLVESGGGLVQAGGSLRLSCAASGSTFTLYAMGWYRQAPGKERELVASITASDGSTSYADSVKGRFTISRDNAKNTVYLQMNSLKPEDTAVYYCAARYRVRGISYYYWGQGTQVTVSS” is “low polyreactivity”. Consider “QLQLVESGGGLVQAGGSLRLSCAASGFIFSWYAMGWYRQAPGKERELVAAISWSGGSTYYADSVKGRITISRDNANNSVYLQMNSLKPEDTAVYYCADDRGWAKEYYWVQGTQVTVSS”, for which the “polyreactivity (PSR sort gate)” value is “high polyreactivity”. Regarding “QVQLVESGGGLVQAGGSLRLSCAASGRIFAKNVMGWYRQGPGKEWELVAAISRSGGSTYYADSVKGRFSISRDNAKNTVYLQMNSLKPEDTAVSYCGAYYGPDSARYYGGYEYWGQGTQVTVSS”, the “polyreactivity (PSR sort gate)” value is listed as “high polyreactivity”. Consider “QVQLVESGGGLVQAGGSLRLSCAASGRIFYRNAMGWSRQAPGKERELVASITSAGRTYYADSVKGRFTISRDNAKNTVYLQMNSLKPEDTAVYYCAVRVAVLLNLYGYWGQGTQVTVSS”, for which the “polyreactivity (PSR sort gate)” value was “low polyreactivity”. The entry for “QVQLVESGGGLVQAGGSLRLSCAASGGTFGSYAMGWYRQAPGKERELVAAIRSGDRTYYADSVKGRFTISRDNAKNTVYLQMNSLKPEDTAVYYCNADGYARFRTYYSRDTREYDYWGQGTQVTVSS” is “low polyreactivity”. Consider “QVQLVESGGGLVQAGGSLRLSCAASGSTFIAYTMGWYRQAPGKERELVAAITWSGGGTYYADSVKGRFTISRDNAKNTVYLQMNSLKPEDTAVYYCAKRGWRGYYWGQGTQVTVSS”, for which the “polyreactivity (PSR sort gate)” value is given as “high polyreactivity”.

As for “QVQLVESGGGLVQAGGSLRLSCAASRRIFDHNAMGWYRQAPGKERELVAAISSSGGRTYYADSVKGRFTISRDNAKNTVYLQMNSLKPEDTAVYYCNKVRTVTTYEYWGQGTQVTVSS”, the “polyreactivity (PSR sort gate)” value is on record as “high polyreactivity”. Consider “QVQLVESGGGLVQAGGSLRLSCAASGSTFRRYAMGWYRQAPGKERELVAAISSNGGSTYYADSVKGRFTISRDNAKNTVYLQMNSLKPEDTAVYYCAAYRSLDFDYWGQGTQVTVSS”, for which the “polyreactivity (PSR sort gate)” value is “high polyreactivity”. Regarding “QVQLVESGGGLVQAGGSLRLSCAASGRTFIRYTMGWYRPAPGKERELVAAITSTGRTYYADSVKGRFTISRDNAKNTVYLQMNSLKPEDTAVYYCAAKQSWEGYDYWGQGTQVTVSS”, the “polyreactivity (PSR sort gate)” value is recorded as “low polyreactivity”. For “QVQLVESGVGLVQARGSLRLSCAASGIIFKKTVMGWYRPSPGKERECVAPITSRDGSTYYADSVKGRFTISRDNANNTVYLQMNSLKPEDTAVYYCAAEVYDGYEYEVWYDYCGQGTQVTVSS” the value was “high polyreactivity”; for “QVQLVESGGGLVQAGGSLRLSCAASGYTFKTNDMGRYRQAPGKEREFVAAIDSGGNTYYADSVKGRFTISRDNAKITVYLQMNSLIPEDTAVYYCGAYRDYQYDYWGQGTQVTVSS”, “low polyreactivity”; for “QVQLVESGGGLVQAGGSLRLSCAASGRIIYTYAMAWYRQAPGKERELVAAISWSGGSTYYADSVKGRFTISRDNAKNTVYLQMNSMKPEDTAVYYCNAAYYGYENLSKRGYWGQGTQVTVSS”, “high polyreactivity”. As for “QDQLEESGGGLVQAGGSLRLSCAASVRTFRDNAMGWSRQATGKQRQLVAAITQSGASTFYADSVKGRFTISRDNAKNSVYLQMNSLKADDTAVYYCAALRRQGRYVYGYWGQGTQVTVSS”, the “polyreactivity (PSR sort gate)” value is “high polyreactivity”. For “QVQLVESGGGLVQAGGSLRLSCAASGSIFDDYAMGWYRQAPGKESELVAAITSGASTNYADSVKGRFTISRDNAKNTFSLQMNSLKPEDTAVYYCAADHDYFVNTDKFDDYWGQGTQVTVSS” the value was “low polyreactivity”; for “QVQLVESGGGLVQAGGSLRLSCAASGSIFVSNAMGWYRQAPGTERELVAAISGGGSTYYADSVKGRFTISRDNAKNTVFLQMNSLKPEDTAVYYCAKKGGHRTYGYDSWGQGTQVTVSS”, “low polyreactivity”. For “QVQLVESGGGLVQAGGSLRLTSAASGSIFPYNAMGWYRPAPGKDSELLARISWSGGSTYYADSVKGRFTISRDNAKNTVYLQMKSLKPEDTALYYGAATIIFDAQYRFYYWGQGTQVTVSS” the value was “low polyreactivity”; for “QVQLVESGGGLVQAGGSLRLSCAASGSTLAVYAKGWSRQAPGKERELVAVIDRGGSTYYADSVKGRFTISRDNAKNTVYLQLNCLKPEDTAVYFCNARRVKGYGYWGQGTQVTVSS”, “high polyreactivity”. The entry for “QVQLVESGGGLVQAGGSLRLSCAASGLTFSCYAMGWYRQAPGKERELVASINYSGANTYYADSVKGRFTISRDNAKNTVYLQMNSLKPEDTAVYYCNTRRRRYQNERVTYDYWGQGTQVTVSS” is “high polyreactivity”. With “QGQLVVSGGGLVQAGGSLRLSCAASGRISSSYAMGWYRQAPGKEREFVAAIRSSGGSTYYADSVKGRFTISRDYAKNTVYLQMISLKPVDTAVYYCNKVGFYQSRKYYYWGQATQVTVSS”, the “polyreactivity (PSR sort gate)” value is “high polyreactivity”. The entry for “QVQLVESGGGLVQAGGSLRLSCAASGRTFYSNAMGWYRQAPGKERELVAAISRSGGTTYYADSVKGRFTISRDNAKNTVYLQMNSLKPEDTAVYYCNTLRYGTTGKYDYWGQGTQVTVSS” is “high polyreactivity”; for “QVQLVESGGGLVQAGGSLRLSCAASGFIFVRYAMGWYRQAPGKERELVAAISSGGSTKYADSVKGRFTISRDNAKNTVYLQMNSLKPEDTAVYYCAADATPGRGVDYWGQGTQVTVSS” it is “high polyreactivity”.

With “QVQLVESGGGLVQAGGSLRLSCAASGIIFSDYTMGWYRQAPGKERELVAAITWSGASTYYADSVKGRFTISRDNAKNTVYLQMNSLKPEDTAVYYCAAREYWYPGYVSWFDYWGQGTQVTVSS”, the “polyreactivity (PSR sort gate)” value is reported as “high polyreactivity”. For “HVQLVESGGGLGQAGGSLRLSCAASGSIFYVNAIGWYRQAPGKERELVADITWSGGSTYYADSVKGRFTISRDHAQTTVYLQMNSLKPEDTAVYYCAAKVKHWYYPYYYWGQGTQVTVSS” the value was “low polyreactivity”; for “QVQLVESGGGLVQAGGSLRLSCASSGSIFALNAMGWYRQAPGKERELVAAISSSGGNTYYADSVKGRFTISRDNAKNTVYLQMNSLKPEDTAVYYCNRVAYRNDFDYWGQGTQVTVSS”, “low polyreactivity”.

On to “QVQLVESGGGLVQAGGSLRLSCAASGRIFRYNTMGWYRQAPGKEREFVAAITQRGVNTYYADSVKGRFTISRDNAKNTVYLQLNSLKPEDTAVYYCNAKRYSYWIYRAYDYWGQGTQVTVSS”, for which the “polyreactivity (PSR sort gate)” value was “low polyreactivity”. Take “QVQLVESGGGLVQAGGSLRLSCAASGRIFFVNAMGWYRQAPGKERELVAAISSGGSTNYADSVKGRFTISRDNAKNTVYLQMNSLKPEDTAVYYCASSHYRYGTQGYDYWGQGTQVTVSS”: the “polyreactivity (PSR sort gate)” value is “low polyreactivity”.

These data come from the nanobody polyreactivity screen of Harvey et al. (2022).
